Test results published in patent publication US20110144187, “APTAMER INHIBITION OF THROMBUS FORMATION” (published 2011).
Substitutions are numbered along the chain they refer to.

How the values were obtained:
[1] = test system: fibrinogen (Homo sapiens), P02671-2+P02675+P02679-2; test: filter; details: quinoline-8-boronic acid-modified T (B-TTP) replacing T outside the primer region; average Kd of DNA pool after round 13
fibrinogen [2] = biological target: T1, fibrinogen (Homo sapiens, UniProt P02671-2;P02675;P02679-2 P02671-2:20-629,P02675:31-491,P02679-2:27-437); test: SPR; biotin-aptamer on streptavidin chip; details: tags: Sigma-Aldrich, from human plasma, about 60% protein, chain copies: 2
T1 sequence (P02671 20-629, chain 1 of 3): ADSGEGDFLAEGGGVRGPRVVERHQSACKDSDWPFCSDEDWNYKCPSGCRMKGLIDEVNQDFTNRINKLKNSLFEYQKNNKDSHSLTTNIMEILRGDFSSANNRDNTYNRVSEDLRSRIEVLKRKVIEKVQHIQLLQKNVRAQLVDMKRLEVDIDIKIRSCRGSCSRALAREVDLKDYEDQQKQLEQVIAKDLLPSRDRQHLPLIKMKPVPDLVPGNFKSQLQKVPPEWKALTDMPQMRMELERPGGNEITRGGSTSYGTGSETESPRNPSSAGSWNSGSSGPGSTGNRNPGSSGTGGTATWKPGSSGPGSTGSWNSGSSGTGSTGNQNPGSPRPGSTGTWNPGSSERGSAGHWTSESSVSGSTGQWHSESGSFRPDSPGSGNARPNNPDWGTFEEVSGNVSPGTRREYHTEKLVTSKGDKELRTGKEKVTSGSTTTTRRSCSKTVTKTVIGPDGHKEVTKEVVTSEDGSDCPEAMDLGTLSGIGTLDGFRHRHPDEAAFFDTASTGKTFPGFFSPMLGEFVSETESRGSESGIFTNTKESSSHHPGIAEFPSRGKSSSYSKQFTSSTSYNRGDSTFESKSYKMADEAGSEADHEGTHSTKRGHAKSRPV
T1 sequence (P02675 31-491, chain 2 of 3): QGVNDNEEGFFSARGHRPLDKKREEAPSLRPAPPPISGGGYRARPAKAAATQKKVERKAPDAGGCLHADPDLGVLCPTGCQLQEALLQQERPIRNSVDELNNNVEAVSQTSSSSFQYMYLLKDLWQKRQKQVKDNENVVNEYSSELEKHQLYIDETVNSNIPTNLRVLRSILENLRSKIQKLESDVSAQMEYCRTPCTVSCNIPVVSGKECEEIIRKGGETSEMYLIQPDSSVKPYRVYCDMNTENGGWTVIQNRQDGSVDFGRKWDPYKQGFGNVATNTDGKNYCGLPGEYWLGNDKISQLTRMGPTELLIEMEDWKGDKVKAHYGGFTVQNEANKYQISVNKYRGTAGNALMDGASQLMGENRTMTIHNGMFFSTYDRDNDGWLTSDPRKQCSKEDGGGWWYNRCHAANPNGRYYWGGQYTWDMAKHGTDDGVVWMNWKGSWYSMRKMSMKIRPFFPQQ
T1 sequence (P02679 other isoform, or with tags, fused parts or gaps, chain 3 of 3): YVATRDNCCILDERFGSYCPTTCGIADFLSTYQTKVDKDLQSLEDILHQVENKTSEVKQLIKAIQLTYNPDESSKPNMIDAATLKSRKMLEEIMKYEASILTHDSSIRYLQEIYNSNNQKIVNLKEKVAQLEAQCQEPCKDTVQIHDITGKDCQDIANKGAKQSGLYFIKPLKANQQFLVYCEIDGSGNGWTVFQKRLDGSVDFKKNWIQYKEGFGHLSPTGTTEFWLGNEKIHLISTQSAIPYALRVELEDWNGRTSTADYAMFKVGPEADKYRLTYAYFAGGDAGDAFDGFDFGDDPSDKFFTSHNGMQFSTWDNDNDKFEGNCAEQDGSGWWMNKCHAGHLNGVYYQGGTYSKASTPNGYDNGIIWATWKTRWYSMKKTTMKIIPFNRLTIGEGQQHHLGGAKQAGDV
Experimental: 0.2 M EDC and 0.05 M NHS were mixed in water. After degassing, 500 μL of this EDC-NHS solution was infused into both channels on the chip over a period of about 10 min (twice). Then a 1 mg/mL streptavidin stock solution was diluted 10-fold with 20 mM sodium acetate buffer at pH 5.2. The streptavidin solution (500 μL) was infused into both the detection and control channels over about 10 min period. […] 1M ethanolamine HCl solution (500 μL) (pH 8.5) was infused in over a period of 3 min to cap un-reacted (and activated) carboxyl sites. Then biotin-labeled aptamer (B-TTP or d-TTP) solution (500 μL, in PBS/T) was infused into the detection channel only over a period of about 10 min (twice). After aptamer immobilization, different fibrinogen concentrations were used in binding studies. In each run, fibrinogen solution was infused in at a flow rate of 0.05 mL/min for 6 min. After each injection, 1M ethanolamine HCl (pH 8.5) solution was infused in as the regeneration solution. All experiments were duplicated.
The KD values were obtained for aptamer 85B (SEQ ID NO.: 14) and its mutational analogs by using a surface plasmon resonance (SPR) instrument. SPR is a method to detect the index of the refraction of surface bound layers, as described by Karlsson et al., (2000) J. Anal. Biochem. 278: 1-13, and Shimomura et al., (2001) Anal. Chim. Acta. 434: 223-230 both of which are incorporated herein by reference in their entireties). This method has been used to determine the kinetic on and off rates for the interactions between biomolecules and binding receptors. In the aptamer-fibrinogen binding studies, streptavidin was immobilized to chips coated with a SAM surface that has terminal carboxyl functional groups. Biotin-labeled DNA was subsequently immobilized on the chip through biotin-streptavidin interactions. Fibrinogen solutions of various concentrations were then used for binding constant determination using kinetic data, as described by Lin et al., (2007). […] Opin. Biotechnol. 8: 498-502; Myszka, D. G. (2000) Methods Enzymol. 323: 325-340; and Myszka & Rich (2000) Pharm. Sci. Technology Today 3: 310-317. Table 6 lists the KD values of 85B and its mutations.

[3] = biological target: T2, periodate-treated fibrinogen (Homo sapiens, UniProt P02671-2;P02675;P02679-2 P02671-2:20-629,P02675:31-491,P02679-2:27-437); test: filter; equilibrium filtration; details: tags: Sigma-Aldrich fibrinogen, glycans oxidised with sodium periodate, chain copies: 2
T2 sequence (P02671 20-629, chain 1 of 3): as the sequence (P02671 20-629, chain 1 of 3) above
T2 sequence (P02675 31-491, chain 2 of 3): as the sequence (P02675 31-491, chain 2 of 3) above
T2 sequence (P02679 other isoform, or with tags, fused parts or gaps, chain 3 of 3): as the sequence (P02679 other isoform, or with tags, fused parts or gaps, chain 3 of 3) above
Experimental: (§1) Dissociation constants in solution were determined by equilibrium filtration (Jenison et al., Science 1994, 263, 1425-1429; Huang & Szostak, RNA 2003, 9: 1456-1463;). Using this technique, the bound and unbound ligand (DNA) partition between the two portions were separated by a membrane. DNA was first amplified into dsDNA using two primers by PCR (25 cycles of 0.5 min at 94° C., 0.5 min at 46° C., and 0.5 min at 72° C., followed by 5 min at 72° C.). The dsDNA product was then split into ssDNA using one primer and α-³²P-dATP by one-round PCR. The ³²P-labeled ssDNA ligand (10 nM) and the protein (1-1000 nM) in the 100 μL of binding buffer were incubated for 15 min at 25° C. prior to loading into the Microcon YM-100 unit (Millipore, Billerica, Mass.). The solution was centrifuged at 13,000 g for 10 sec to saturate the membrane, and the filtrate was transferred back to the unit. The solution was centrifuged for another 20 sec, and the filtrate (about 10 μL) was collected. Aliquots (10 μL) were taken from both the remaining solution and the filtrate, and radioactivity in each aliquot was determined by Beckman LS 6500 liquid scintillation counter. All binding assays were duplicated. The equilibrium dissociation constants (Kd) of the ligand-protein interaction were obtained by fitting the dependence of bound fractions of specific binding on the concentration of the aptamers to the equation Y=B max X/(Kd+X), using the SigmaPlot program.
(§2) To determine the extent to which the aptamers 85A (SEQ ID NO.: 13), 85B (SEQ ID NO.: 14), and 85C (SEQ ID NO.: 15) bind specifically to fibrinogen, their dissociation constants (Kd) were measured using the equilibrium filtration method with radiolabeled α-³²P-dATP. The target substrate to which the aptamer was binding was fibrinogen (FIG. 12A), deglycosylated fibrinogen (FIG. 12B) and periodated fibrinogen (FIG. 12C).

[4] = biological target: T3, deglycosylated fibrinogen (TFMS-treated) (Homo sapiens, UniProt P02671-2;P02675;P02679-2 P02671-2:20-629,P02675:31-491,P02679-2:27-437); test: filter; equilibrium filtration; details: tags: Sigma-Aldrich fibrinogen, chemically deglycosylated with trifluoromethanesulfonic acid, chain copies: 2
T3 sequence (P02671 20-629, chain 1 of 3): as the sequence (P02671 20-629, chain 1 of 3) above
T3 sequence (P02675 31-491, chain 2 of 3): as the sequence (P02675 31-491, chain 2 of 3) above
T3 sequence (P02679 other isoform, or with tags, fused parts or gaps, chain 3 of 3): as the sequence (P02679 other isoform, or with tags, fused parts or gaps, chain 3 of 3) above
Experimental: as §1, §2

fibrinogen [5] = biological target: T1, fibrinogen; test: filter; equilibrium filtration, same buffer; details: tags: Sigma-Aldrich, from human plasma, about 60% protein; chain copies: 2; label: 32P (filtration) or 5'-biotin (SPR)
Experimental: as §1, with “The solution was centrifuged for another 20 sec, and the filtrate (about 10 μL) was collected.” left out, “All binding assays were duplicated. The equilibrium dissociation constants (Kd) of the ligand-protein interaction were obtained by fitting the dependence of bound fractions of specific binding on the concentration of the aptamers to the equation Y=B max X/(Kd+X), using the SigmaPlot program.” left out
(§3) To determine the extent to which the aptamers 85A (SEQ ID NO.: 13), 85B (SEQ ID NO.: 14), and 85C (SEQ ID NO.: 15) bind specifically to fibrinogen, their dissociation constants (Kd) were measured using the equilibrium filtration method with radiolabeled α-³²P-dATP. […]

fibrinogen [6] = biological target: T1, fibrinogen; test: filter; equilibrium filtration; Table 1 prints a different (93, possibly truncated) value; details: tags: Sigma-Aldrich, from human plasma, about 60% protein; chain copies: 2; label: 32P (alpha-32P-dATP)
Experimental: as §1, with “The solution was centrifuged for another 20 sec, and the filtrate (about 10 μL) was collected.” left out, “All binding assays were duplicated. The equilibrium dissociation constants (Kd) of the ligand-protein interaction were obtained by fitting the dependence of bound fractions of specific binding on the concentration of the aptamers to the equation Y=B max X/(Kd+X), using the SigmaPlot program.” left out
as §3

fibrinogen [7] = biological target: T1, fibrinogen; test: filter; equilibrium filtration; Tables 3 and 4 give 102 ± 40; details: tags: Sigma-Aldrich, from human plasma, about 60% protein; chain copies: 2; label: 32P (alpha-32P-dATP)
Experimental: as §1, with “The solution was centrifuged for another 20 sec, and the filtrate (about 10 μL) was collected.” left out, “All binding assays were duplicated. The equilibrium dissociation constants (Kd) of the ligand-protein interaction were obtained by fitting the dependence of bound fractions of specific binding on the concentration of the aptamers to the equation Y=B max X/(Kd+X), using the SigmaPlot program.” left out
as §3

[8] = biological target: T2, periodate-treated fibrinogen; test: filter; equilibrium filtration; value as printed; details: tags: Sigma-Aldrich fibrinogen, glycans oxidised with sodium periodate; chain copies: 2; label: 32P (alpha-32P-dATP)
Experimental: as §1, with “The solution was centrifuged for another 20 sec, and the filtrate (about 10 μL) was collected.” left out, “All binding assays were duplicated. The equilibrium dissociation constants (Kd) of the ligand-protein interaction were obtained by fitting the dependence of bound fractions of specific binding on the concentration of the aptamers to the equation Y=B max X/(Kd+X), using the SigmaPlot program.” left out
as §3

[9] = biological target: T3, deglycosylated fibrinogen (TFMS-treated); test: filter; equilibrium filtration; value as printed; details: tags: Sigma-Aldrich fibrinogen, chemically deglycosylated with trifluoromethanesulfonic acid; chain copies: 2; label: 32P (alpha-32P-dATP)
Experimental: as §1, with “The solution was centrifuged for another 20 sec, and the filtrate (about 10 μL) was collected.” left out, “All binding assays were duplicated. The equilibrium dissociation constants (Kd) of the ligand-protein interaction were obtained by fitting the dependence of bound fractions of specific binding on the concentration of the aptamers to the equation Y=B max X/(Kd+X), using the SigmaPlot program.” left out
as §3

fibrinogen [10] = biological target: T1, fibrinogen; test: filter; equilibrium filtration; details: tags: Sigma-Aldrich, from human plasma, about 60% protein; chain copies: 2; label: 32P (alpha-32P-dATP)
Experimental: as §1, §2

fibrinogen [11] = biological target: T1, fibrinogen; test: filter; equilibrium filtration; peroxide-treated aptamer; details: tags: Sigma-Aldrich, from human plasma, about 60% protein; chain copies: 2; label: 32P (alpha-32P-dATP)
[12] = label: 32P (filtration) or 5'-biotin (SPR)

Sequence of fibrinogen (Homo sapiens), P02671-2+P02675+P02679-2 (P02671 20-629, chain 1 of 3): as the sequence (P02671 20-629, chain 1 of 3) above
Sequence of fibrinogen (Homo sapiens), P02671-2+P02675+P02679-2 (P02675 31-491, chain 2 of 3): as the sequence (P02675 31-491, chain 2 of 3) above
Sequence of fibrinogen (Homo sapiens), P02671-2+P02675+P02679-2 (P02679 other isoform, or with tags, fused parts or gaps, chain 3 of 3): as the sequence (P02679 other isoform, or with tags, fused parts or gaps, chain 3 of 3) above

## CCTTCGTTGTCTGCCTTCGTNNNNNNNNNNNNNNNNNNNNNNNNNNNNNNNNNNNNNNNNNNNNNNNNNNACCCTTCAGAATTCGCACCA [round 13 SELEX pool B-TTP]
[1]
  Kd: 5000 nM

B1: 85B-2 B-TTP (ssDNA)
DNA: CCTTCGTTGTCTGCCTTCGTAGGACCGCAGACATCGACGCAGGGAAAATCCGCAAGTCCAGCCAAATGCCACCCTTCAGAATTCGCACCA
modifications: quinoline-8-boronic acid-modified T (B-TTP) replacing T outside the primer region
Fibrinogen [2]; label: 5'-biotin
  Kd: 63.7 nM

B2: 85B-5 B-TTP (ssDNA)
DNA: B1 DNA with A48T, T67A
modifications: quinoline-8-boronic acid-modified T (B-TTP) replacing T outside the primer region
Fibrinogen [2]; label: 5'-biotin
  Kd: 329 nM

B3: 85B-4 B-TTP (ssDNA)
DNA: B1 DNA with A48T, T57A, T67A
modifications: quinoline-8-boronic acid-modified T (B-TTP) replacing T outside the primer region
Fibrinogen [2]; label: 5'-biotin
  Kd: 11.2 nM

B4: 85B-5 dTTP (ssDNA)
DNA: B1 DNA with A48T, T67A
modifications: none (natural T)
Fibrinogen [2]; label: 5'-biotin
  Kd: 1080 nM

B5: 85B-1 dTTP (ssDNA)
DNA: B1 DNA with T34A, A48T
modifications: none (natural T)
Fibrinogen [2]; label: 5'-biotin
  Kd: 507 nM

B6: 85B TTP (ssDNA)
DNA: B1 DNA with A48T
modifications: none (natural T)
Fibrinogen [2]; [12]
  Kd: 127 nM
[3]; [12]
  Kd: 130 nM
[4]; [12]
  Kd: 140 nM
Fibrinogen [5]
  Kd: 63.8 nM

B7: 85B-4 dTTP (ssDNA)
DNA: B1 DNA with A48T, T57A, T67A
modifications: none (natural T)
Fibrinogen [2]; label: 5'-biotin
  Kd: 238 nM

B8: 85B-2 dTTP (ssDNA)
DNA: B1 DNA
modifications: none (natural T)
Fibrinogen [2]; label: 5'-biotin
  Kd: 127 nM

B9: 85B-1 B-TTP (ssDNA)
DNA: B1 DNA with T34A, A48T
modifications: quinoline-8-boronic acid-modified T (B-TTP) replacing T outside the primer region
Fibrinogen [2]; label: 5'-biotin
  Kd: 205 nM

B10: 85B-3 B-TTP (ssDNA)
DNA: B1 DNA with T34A, A48T, T49A
modifications: quinoline-8-boronic acid-modified T (B-TTP) replacing T outside the primer region
Fibrinogen [2]; label: 5'-biotin
  Kd: 17.6 nM

B11: 85B-3 dTTP (ssDNA)
DNA: B1 DNA with T34A, A48T, T49A
modifications: none (natural T)
Fibrinogen [2]; label: 5'-biotin
  Kd: 233 nM

B12: 85C TTP (ssDNA)
DNA: CCTTCGTTGTCTGCCTTCGTAGTCGACTCTGACGCATGGACGTATCCTGTGCGTATGCATTATGAAGCACACCCTTCAGAATTCGCACCA
modifications: none (natural T)
[3]; label: 32P (alpha-32P-dATP)
  Kd: 321 nM
[4]; label: 32P (alpha-32P-dATP)
  Kd: 256 nM
Fibrinogen [6]
  Kd: 122 nM

B13: 85A TTP (ssDNA)
DNA: CCTTCGTTGTCTGCCTTCGTAGCGGATCGAATTACGCGTTAACGGCAACCGATAACGGGACCGATTGCACACCCTTCAGAATTCGCACCA
modifications: none (natural T)
Fibrinogen [7]
  Kd: 102 nM
[8]
  Kd: 67.4 nM
[9]
  Kd: 60.2 nM

B14: 85A M-TTP (ssDNA)
DNA: B13 DNA
modifications: 5-alkynyl-amide T without boronic acid (M-TTP) replacing T outside the primer region
Fibrinogen [10]
  Kd: 138 nM

B15: 85A B-TTP, H2O2-treated (ssDNA)
DNA: B13 DNA
modifications: B-TTP-derived T with boronic acid removed by peroxide oxidation
Fibrinogen [11]
  Kd: 173 nM
